# Data: patent publication US6300103A, “Anti-microbial proteins” (Syngenta Participants AG, priority 1993, dated 2001)
# Substitutions are numbered along the chain they refer to. Ends that are not written are not given here.
# B1: peak 3.1: anti-microbial protein of about 7 kDa from sugar beet leaf intercellular washing fluid, peak 3.1 in FIG. 3 (protein)
# chain: ITCGLVASKLAPCIGYLQGAPGPSAGCCGGIKGLNSAAASPADRKTACTCLKSAATSIKGINYGKAASLPRQCGVSVPYAISPNTNCNAIH
# B2: peak 3.2: anti-microbial protein of about 7 kDa from sugar beet leaf intercellular washing fluid, peak 3.2 in FIG. 3 (protein)
# chain: B1 chain with I58M, V77I
# Tested on: C. beticola
# Assay: microtiter plate bioassay of inhibition of fungal growth (absorbance at 620 nm)
# Type: cell-based
# Conditions: spores of C. beticola in 96 well micro-titre plates, FIGS. 4, 7-8 (10 ug alone, 2 ug each in combination)
# Procedure: The thus obtained IWF is fractionated by cation exchange chromatography on a 10 ml CM-Sepharose column (Pharmacia LKB) pre-equilibrated in starting buffer (20 mM HAc (pH 4.5)). The fractionation is performed at 4° C. at a flow rate of 25 ml/h. Fractions of 3 ml are collected. Proteins not bound to the column are removed by extensive washing of the column with starting buffer. Bound proteins are eluted by applying to the column further starting buffer comprising stepwise increased salt concentrations: viz, 0.1 M NaCg, 0.3 M NACl and 0.5 M NaCl. The absorbance at 280 nm of the eluate is measured, and fractions judged to comprise protein are tested for their anti-fungal activity against C. beticola using the microtiter plate bioassay described previously (PCT Patent Application No. PCT/DK92/00108, Publication No. WO 92/17591, now assigned to Sandoz LTD). […] The inhibition of fungal growth is measured in 96 well micro-titre plates at 620 nm, essentially as described in WO 92/17591. […] The proteins, either alone or in combination with WIN N (which is purified from barley grain or stressed barley leaf as described by Hejgaard et al (FEBS Letters, 307, 389-392 (1992)), and/or a protein having a sequence corresponding to at least one of those given in SEQ ID Nos. 4-6, are incubated with spores of C. beticola. The assay mix (240 ul) contains 100 ul of potato dextrose broth (Difco), 40 ul protein sample (or buffer control) in 100 mM Tris and 20 mM NaCl (pH 8.0) as well as approximately 400 spores in 100 ul water. The micro-titre plates are sealed with tape to avoid evaporation and contamination and subsequently incubated at room temperature on an agitator operated at 200 rpm. The absorbance at 620 nm is measured each day for 8 days and plotted for each concentration of protein vs time.
row,Molecule,anti-fungal activity (inhibition of fungal growth)
1,"peaks 1 and 2: anti-microbial protein of 2.5-3 kDa (dimer about 5 kDa) from sugar beet, peaks 1 and 2 in FIG. 6 (SGECNMYGRCPPGYCCSKFGYCGVGRAYCG; cysteine pairing not given here; also: dimer about 5 kDa)",significant anti-fungal activity
2,B1,significant anti-fungal activity
3,B2,significant anti-fungal activity
